Laboratory results: US20240190983A1 (JULIUS MAXIMILIANS UNIVERSIT T W RZBURG, published 2024)
One block for each binder: values may come before it.

Assays:
Cynomolgus TNFR2 = target: T1, Cynomolgus TNFR2 (Macaca fascicularis (cynomolgus monkey), UniProt P20333 26-461 (human entry)); assay: equilibrium binding of the GpL fusion protein to HEK293 cells transiently transfected with cynomolgus TNFR2, 37 °C; empty-vector cells as non-specific binding
T1 construct: Expressed on transiently transfected HEK293 cells; also called TNFR2-cyno; monkey TNFR2
T1 chain: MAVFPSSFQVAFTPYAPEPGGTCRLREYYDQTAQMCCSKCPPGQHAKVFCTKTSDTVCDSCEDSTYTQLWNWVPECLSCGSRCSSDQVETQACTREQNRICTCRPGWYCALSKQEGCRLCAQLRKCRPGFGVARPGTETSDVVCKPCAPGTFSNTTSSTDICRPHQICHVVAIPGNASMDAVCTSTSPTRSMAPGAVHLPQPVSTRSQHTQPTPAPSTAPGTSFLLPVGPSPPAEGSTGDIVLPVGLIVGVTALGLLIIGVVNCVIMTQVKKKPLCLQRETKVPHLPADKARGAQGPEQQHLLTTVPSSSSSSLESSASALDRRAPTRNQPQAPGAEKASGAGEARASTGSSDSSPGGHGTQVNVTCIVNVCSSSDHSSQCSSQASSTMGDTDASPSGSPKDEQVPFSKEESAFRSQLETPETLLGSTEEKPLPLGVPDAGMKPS
Protocol: (§1) FIG. 14—Binding of TNFR2-specific antibodies to human, murine and cynomolgus TNFR2. HEK293 cells were transiently transfected with human, murine and cynomologus TNFR2 or empty vector. Equilibrium binding of the indicated anti-TNFR2 antibody GpL fusion proteins were then determined at 37° C. Binding to empty vector transfected cells was determined to obtain unspecific binding values.
(§2) Affinity (KD-values) of TNFR2-targeting antibodies to human, cynomolgus monkey, and murine TNFR2 was evaluated by cellular equilibrium binding studies. Therefore, HEK293T cells were transiently transfected with human, cynomolgus or mouse TNFR2 encoding expression plasmids or an empty vector control (EV) using the PEI method. […] Cell associated luciferase activity (RLU; relative light units) was detected with LUmo luminometer (anthos Mikrosysteme GmbH, Friesoythe, Germany) directly after adding 1.5 μM of the substrate coelenterazin (Carl Roth, Karlsruhe, Germany).
(§3) The binding properties of anti-TNFR2 antibodies from different clones were assessed. […] Equilibrium binding of the indicated anti-TNFR2 antibody GpL fusion proteins was then determined at 37° C. Binding to empty vector transfected cells was determined to obtain unspecific binding values.

Murine TNFR2 [1] = target: T2, Murine TNFR2 (mouse, UniProt P25119 23-474); assay: equilibrium binding of the GpL fusion protein (label C9-IgG1-LC:GpL) to HEK293 cells transiently transfected with murine TNFR2; empty-vector cells as non-specific binding
T2 construct: Expressed on transiently transfected HEK293 cells; also called mouse TNFR2; TNFR2(mu)
T2 sequence: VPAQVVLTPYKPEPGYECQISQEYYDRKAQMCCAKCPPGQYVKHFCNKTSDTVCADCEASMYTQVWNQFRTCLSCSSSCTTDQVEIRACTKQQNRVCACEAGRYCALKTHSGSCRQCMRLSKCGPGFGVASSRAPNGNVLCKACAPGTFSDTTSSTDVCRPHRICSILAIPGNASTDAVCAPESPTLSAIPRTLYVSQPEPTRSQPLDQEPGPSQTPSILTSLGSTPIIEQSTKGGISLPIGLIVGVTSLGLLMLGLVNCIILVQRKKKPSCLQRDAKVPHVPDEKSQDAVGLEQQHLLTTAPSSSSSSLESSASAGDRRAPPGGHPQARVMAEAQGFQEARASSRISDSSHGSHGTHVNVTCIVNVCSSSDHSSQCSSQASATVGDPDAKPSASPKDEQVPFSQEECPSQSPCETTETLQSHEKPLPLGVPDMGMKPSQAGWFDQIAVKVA
Protocol: as §1, §2, §3

[2] = target: T3, Extracellular domain of TNFR1 with a GPI anchor domain (UniProt P19438 30-211); assay: binding of the GpL tagged protein to HEK293 cells transiently transfected with the TNFR1 extracellular domain with GPI anchor; empty-vector cells as non-specific binding
T3 construct: extracellular domain; not shown: GPI anchor domain
T3 sequence (looked up): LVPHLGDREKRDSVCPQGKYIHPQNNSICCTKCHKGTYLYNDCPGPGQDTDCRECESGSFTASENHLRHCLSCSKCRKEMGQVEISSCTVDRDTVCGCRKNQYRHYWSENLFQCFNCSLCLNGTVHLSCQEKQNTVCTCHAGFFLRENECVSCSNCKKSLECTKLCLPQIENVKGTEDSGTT
Protocol: (§4) HEK293 cells were transiently transfected with: (i) a TNFR2 expression plasmid; (ii) an expression plasmid encoding the extracellular domain of TNFR1 with a GPI anchor domain; or (iii) empty vector (ev). Next day, the indicated GpL tagged binding molecules were added at the indicated concentration to the cells. After incubation for 1 hour at 37° C., followed by two washes with PBS, the remaining cell bound GpL activity was determined.
(§5) An experiment was performed to illustrate the ability of the binding molecules provided to bind TNFR2, but not TNFR1. HEK293 cells were transiently transfected with: (i) a TNFR2 expression plasmid; (ii) an expression plasmid encoding the extracellular domain of TNFR1 with a GPI anchor domain; or (iii) empty vector (ev). […] The proteins indicated in FIG. 27 were added at the indicated concentration to the HEK293 cells. After incubation for 1 hour at 37° C., followed by two washes with PBS, the remaining cell bound GpL activity was determined.

Human TNFR2 [3] = target: T4, Human TNFR2 (human, UniProt P20333 23-461); assay: binding of the GpL tagged protein to HEK293 cells transiently transfected with TNFR2, 1 h 37 °C; empty-vector cells as non-specific binding
T4 construct: On cells: HeLa-TNFR2, HT1080-Bcl2-TNFR2, transiently transfected HEK293; endogenous on Kym-1 cells; also called huTNFR2; TNFRSF1B
T4 sequence: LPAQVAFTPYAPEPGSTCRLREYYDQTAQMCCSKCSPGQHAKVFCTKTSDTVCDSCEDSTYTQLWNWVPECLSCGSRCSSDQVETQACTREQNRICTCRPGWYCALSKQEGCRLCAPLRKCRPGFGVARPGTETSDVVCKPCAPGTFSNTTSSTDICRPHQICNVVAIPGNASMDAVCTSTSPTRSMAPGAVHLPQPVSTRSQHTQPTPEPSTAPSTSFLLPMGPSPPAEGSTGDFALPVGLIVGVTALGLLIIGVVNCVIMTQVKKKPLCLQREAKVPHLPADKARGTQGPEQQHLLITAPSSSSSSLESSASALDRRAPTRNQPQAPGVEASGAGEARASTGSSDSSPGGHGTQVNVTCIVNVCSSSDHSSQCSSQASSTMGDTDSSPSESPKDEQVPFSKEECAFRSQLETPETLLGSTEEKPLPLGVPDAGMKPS
Protocol: as §4, §5

Human TNFR2 [4] = target: T4, Human TNFR2; assay: equilibrium binding of the GpL fusion protein to HeLa-TNFR2 cells, 37 °C; unspecific binding on HeLa cells subtracted; cell-bound luciferase
Protocol: FIG. 11—Binding properties of TNFR2-specific antibodies. (A) Equilibrium binding of the indicated anti-TNFR2 antibody GpL fusion proteins to cell expressed human TNFR2 at 37° C. (B) HeLa-TNFR2 cells were pretreated with the indicated amounts of anti-TNFR2 antibodies or remained untreated. […] Binding of the various constructs to untransfected HeLa cells was analyzed to obtain unspecific binding values.
Affinity of TNFR2-specific antibodies and antibody variants were also evaluated with HeLa cells and HeLa cells stably expressing human TNFR2. HeLa and HeLa-TNFR2 cells were seeded out in 24-well plates. Next day, the cells were challenged with the indicated concentrations of GpL-labelled TNFR2 antibodies for 1 hour at 37° C. To eliminate the unbound antibodies, the cells were washed 10 times with ice-cold PBS. The cells were then scratched and collected in 50 μl of medium (RPMI, 0.5% FCS) and transferred to black 96-well plates for measurement as mentioned above. The specific binding of different TNFR2-specific antibodies/antibody variants was calculated by subtracting the unspecific binding (values obtained from HeLa cells) from total binding (obtained from HeLa-TNFR2). The resulting values were fitted using the non-linear regression analysis option of GraphPad Prism 5.

Murine TNFR2 [5] = target: T2, Murine TNFR2; assay: equilibrium binding of the GpL fusion protein (label C27-IgG1-LC:GpL) to HEK293 cells transiently transfected with murine TNFR2; empty-vector cells as non-specific binding
Protocol: as §1, §2, §3

Kd (Cynomolgus TNFR2): 1.1 µg/mL | binding result (Murine TNFR2 [1]): no binding (tested: 1500 ng/ml) | binding result [2]: no binding (tested: 750 ng/ml) | Kd (Human TNFR2 [3]): 0.13 µg/mL | Bmax (Human TNFR2 [4]): 1000 kRLU | Kd (Human TNFR2 [4]): 0.22 µg/mL
B1: C9-IgG1(N297A)-LC:GpL (antibody)
light: EVKLVPRQLDYKDDDDKELQIVLTQSPAIMSASPGEKVTITCSASSSVSYMHWFQQKPGTSPKLWIYSTSNLASGVPARFSGSGSGTSYSLTISRMEAEDAATYYCQQRSSYPPTFGGGTKLEIKGSEIKRTVAAPSVFIFPPSDEQLKSGTASVVCLLNNFYPREAKVQWKVDNALQSGNSQESVTEQDSKDSTYSLSSTLTLSKADYEKHKVYACEVTHQGLSSPVTKSFNRGECLEKPTENNEDFNIVAVASNFATTDLDADRGKLPGKKLPLEVLKEMEANARKAGCTRGCLICLSHIKCTPKMKKFIPGRCHTYEGDKESAQGGIGEAIVDIPEIPGFKDLEPMEQFIAQVDLCVDCTTGCLKGLANVQCSDLLKKWLPQRCATFASKIQGQVDKIKGAGGD
heavy: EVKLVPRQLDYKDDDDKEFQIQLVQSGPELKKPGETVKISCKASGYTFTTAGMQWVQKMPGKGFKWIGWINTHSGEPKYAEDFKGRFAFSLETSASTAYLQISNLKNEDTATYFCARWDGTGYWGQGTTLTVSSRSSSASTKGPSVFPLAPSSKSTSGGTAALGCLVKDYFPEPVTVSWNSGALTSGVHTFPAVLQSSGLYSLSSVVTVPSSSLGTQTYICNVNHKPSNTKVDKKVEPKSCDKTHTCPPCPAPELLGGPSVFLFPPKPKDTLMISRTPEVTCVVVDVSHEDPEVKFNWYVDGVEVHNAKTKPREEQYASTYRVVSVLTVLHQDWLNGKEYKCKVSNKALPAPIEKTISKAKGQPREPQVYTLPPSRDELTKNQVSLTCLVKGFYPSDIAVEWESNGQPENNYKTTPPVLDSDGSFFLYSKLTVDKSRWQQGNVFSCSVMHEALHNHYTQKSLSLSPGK
notes: copies: 2 + 2

binding result [2]: no binding (tested: 750 ng/ml) | binding result (Murine TNFR2 [5]): no binding (tested: 1000 ng/ml)
B2: C27-IgG1(N297A)-LC:GpL (antibody)
light: EVKLVPRQLDYKDDDDKELNIVMTQSPKSLSMSVGERVTLNCKASENVKTYVSWYQQKPEQSPKLLIYGASNRYTGVPDRFTGSGSATDFTLTISSVQAEDLADYHCGQSYSYPFTFGAGTKLERKGSEIKRTVAAPSVFIFPPSDEQLKSGTASVVCLLNNFYPREAKVQWKVDNALQSGNSQESVTEQDSKDSTYSLSSTLTLSKADYEKHKVYACEVTHQGLSSPVTKSFNRGECLEKPTENNEDFNIVAVASNFATTDLDADRGKLPGKKLPLEVLKEMEANARKAGCTRGCLICLSHIKCTPKMKKFIPGRCHTYEGDKESAQGGIGEAIVDIPEIPGFKDLEPMEQFIAQVDLCVDCTTGCLKGLANVQCSDLLKKWLPQRCATFASKIQGQVDKIKGAGGD
heavy: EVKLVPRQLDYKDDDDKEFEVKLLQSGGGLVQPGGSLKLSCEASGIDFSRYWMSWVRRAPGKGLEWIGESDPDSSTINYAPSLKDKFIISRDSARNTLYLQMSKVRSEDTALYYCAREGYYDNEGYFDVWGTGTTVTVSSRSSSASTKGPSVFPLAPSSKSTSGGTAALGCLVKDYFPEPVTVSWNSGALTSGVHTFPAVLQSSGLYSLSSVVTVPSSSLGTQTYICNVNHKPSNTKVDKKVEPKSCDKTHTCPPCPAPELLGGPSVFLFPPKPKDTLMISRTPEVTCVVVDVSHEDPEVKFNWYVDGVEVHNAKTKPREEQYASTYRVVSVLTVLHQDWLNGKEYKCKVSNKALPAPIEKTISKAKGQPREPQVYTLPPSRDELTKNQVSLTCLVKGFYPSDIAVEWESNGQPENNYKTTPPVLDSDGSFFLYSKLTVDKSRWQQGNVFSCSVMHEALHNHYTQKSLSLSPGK
notes: copies: 2 + 2
